# Reference: patent US20060252118
# T1: Peptide 1 (phosphoserine peptide) H-Val-Pro-Ile-Pro-Gly-Arg-Phe-Asp-Arg-Arg-Val-pSer-Val-Ala-Ala-Glu-NH2
# T1 chain: VPIPGRFDRRVSVAAE
# T2: Peptide 3 (phosphotyrosine peptide) H-Glu-Trp-Met-Arg-Glu-Asn-Ala-Glu-pTyr-Leu-Arg-Val-Ala-OH
# T2 chain: EWMRENAEYLRVA
# T3: Peptide 2 (phosphothreonine peptide) H-Thr-Ala-Asp-Ser-Gln-His-Ser-pThr-Pro-Pro-Lys-Lys-Lys-Arg-Lys-Val-Glu-OH
# T3 chain: TADSQHSTPPKKKRKVE
# B1: thermolabile Antarctic phosphatase (TAP), truncated, with N-terminal His-tag (expressed from pEGTAP7.4.1) (protein)
# chain: MHHHHHHMKLKKIVFTLIALGLFSCKTTSVLVKNEPQLKTPKNVILLISDGAGLSQISSTFYFKEGTPNYTQFKNIGLIKTSSSREDVTDSASGATAFSCGIKTYNAAIGVADDSTAVKSIVEIAALNNIKTGVVATSSITHATPASFYAHALNRGLEEEIAMDMTESDLDFFAGGGLNYFTKRKDKKDVLAILKGNQFTINTTGLTDFSSIASNRKMGFLLADEAMPTMEKGRGNFLSAATDLAIQFLSKDNSAFFIMSEGSQIDWGGHANNASYLISEINDFDDAIGTALAFAKKDGNTLVIVTSDHETGGFTLAAKKNKREDGSEYSDYTEIGPTFSTGGHSATLIPVFAYGPGSEEFIGIYENNEIFHKILKVTKWNQ
# How the values were obtained:
# [1] = target: Tyrosine (Tyr) phosphorylated Myelin Basic Protein substrate (33P labeled)
# Sequence of Tyrosine (Tyr) phosphorylated Myelin Basic Protein substrate (33P labeled) (P02687 whole entry): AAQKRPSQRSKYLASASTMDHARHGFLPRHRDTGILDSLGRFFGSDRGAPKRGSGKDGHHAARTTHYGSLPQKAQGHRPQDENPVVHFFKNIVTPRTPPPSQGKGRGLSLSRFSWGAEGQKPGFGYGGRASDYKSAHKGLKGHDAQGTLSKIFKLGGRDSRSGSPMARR
# [2] = target: T1, Peptide 1 (phosphoserine peptide) …
# [3] = target: T2, Peptide 3 (phosphotyrosine peptide) …
# [4] = target: Serine/threonine (Ser/Thr) phosphorylated Myelin Basic Protein substrate (33P labeled)
# Sequence of Serine/threonine (Ser/Thr) phosphorylated Myelin Basic Protein substrate (33P labeled) (P02687 whole entry): as above
# [5] = target: T3, Peptide 2 (phosphothreonine peptide) …
protein,measurement,setting,value
B1,"specific activity (release of 33P from phosphorylated MyBP, TCA-soluble counts)",[1],also greater than the specific activity for CIAP
same,units of TAP required to completely remove the phosphates from 5 µg of the peptide in 10 mins (Cap-HPLC),[2],2.5 units and 10 units of TAP were required to completely remove the phosphates from the phospho-serine and phospho-threonine peptides respectively
same,units of enzyme required to remove all the phosphates from 5 µg of the peptide in 10 mins (Cap-HPLC),[3],only 0.02 units of enzyme being required to remove all the phosphates from 5 µg of the peptide in 10 mins
same,"specific activity (release of 33P from phosphorylated MyBP, TCA-soluble counts)",[4],1910 nmol/min/mg
same,units of TAP required to completely remove the phosphates from 5 µg of the peptide in 10 mins (Cap-HPLC),[5],2.5 units and 10 units of TAP were required to completely remove the phosphates from the phospho-serine and phospho-threonine peptides respectively
